Entries after “also recorded” stand apart in the source; their conditions may differ.
Tests used:
Format in all cases: cell-based
[1] = test system: N100 (NOTCH fragment); assay: γ-cleavage of NOTCH fragment N100 in HEK 293T cells co-expressing γ-secretase (Western blot); settings: N100-V5 and γ-secretase, PF03084014 at 1 uM
Method: (§1) Plasmids were transfected in HEK 293T or N2A cells for 36-48 hours and then lysed in cell lysis buffer [10% 1M tris-HCl (pH=6.8), 4% SDS, 20% glycerol, 0.01% bromophenol blue]. Lysates were shaken at room temperature for 10 min, then boiled for 10 min, and centrifuged at 12,000×g for 10 min. Proteins were run on 8% or 12% Tris-glycine SDS-PAGE and transferred to PVDF membranes (Life Technologies). Samples were incubated overnight at 4° C. with primary antibody diluted in 5% BSA buffer (in 1×TBST). After washing 3 times with 1×TBST, they were incubated with secondary antibody diluted in 5% BSA buffer (in 1×TBST) for 2 hours at room temperature. Finally, after washing 3 times with 1×TBST, the signal was detected by ECL Western blotting substrate (Solarbio, PE0010).

[2] = test system: human pluripotent stem cell-induced neurons; assay: Endogenous Aβ40 in human pluripotent stem cell-induced neurons (lentivirus, ELISA)
Method: • a) Construction of lentivirus expression plasmids, lentivirus-GFP and lentivirus-ApoE CT, which can be specifically expressed in neurons. • b) The lentivirus vectors were cotransfected with coat protein vectors (PSPAX2 and PMD2G) in HEK 293T cell line. Cells were subcultured one day before transfection, and transfection was performed when the degree of cell adhesion reached 70%-80%. The transfection reagent was Polyjet (SignaGen). • c) 36-48 hours after the transfection, the cell culture was collected and filtered through a 0.22 μm filter membrane. • d) The filtered cell culture solution was ultracentrifuged. Centrifuged at 20000 rpm, 4° C. for 2 hours and 5 minutes. • e) After centrifugation, the supernatant was removed, and the precipitation of every three precipitates of 10 cm cell culture medium was resuspended with 50 μl of PBS. • f) The resuspended virus was subpackaged and stored in a −80° C. refrigerator for subsequent experiments.
48 hours after transfection of HEK 293T cells and N2A cells, or 4.5 days after lentivirus infection of neurons, media and lysates were collected. Aβ40 and Aβ42 in the culture medium and cell lysates were detected by an Aβ ELISA kit as indicated in the protocol. (Invitrogen Technology; KHB3481 for human Aβ40, KHB3441 for human Aβ42 and KMB3481 for mouse Aβ40).

[3] = test system: APLP1; assay: γ-cleavage of APLP1 expressed in HEK 293T cells (Western blot); settings: PF03084014 at 1 μM
Method: • a) A plasmid expressing the target protein in mammalian cells was constructed, and the protein expression promoter is CAG. • b) The target protein was expressed in HEK 293T cell line. Cells were subcultured one day before transfection, and transfection was performed when the degree of cell adhesion reached 70%-80%. The transfection reagent was lipofectamine2000 (ThermoFisher). • c) 4-6 hours post transfection, the medium were replaced with fresh cell culture medium. • d) 36-48 hours post transfection, the cells were lysed (10% 1M tris-HCl (pH=6.8), 4% SDS, 20% glycerol, 0.01% bromophenol blue), and the protein samples were collected and used for Western blot or stored in a −80° C. freezer. • e) Polyacrylamide gel electrophoresis. Before protein loading, the protein was boiled at 98° C. for 10 min, and then centrifuged at 12000 rpm for 10 min. Electrophoresis: 80V for the upper stacking gel; 120V for the lower separating gel. • f) Protein transfer. […]
Plasmids were transfected in HEK 293T or N2A cells for 36-48 hours and then lysed in cell lysis buffer [10% 1M tris-HCl (pH=6.8), 4% SDS, 20% glycerol, 0.01% bromophenol blue]. […] Finally, after washing 3 times with 1×TBST, the signal was detected by ECL Western blotting substrate (Solarbio, PE0010).

[4] = test system: human APP co-expressed in HEK 293T cells; assay: α-CTF produced by APP co-expressed in HEK 293T cells (Western blot); settings: for α-CTF produced by co-expressed APP: Western blot
Method: • a) A plasmid expressing the target protein in mammalian cells was constructed, and the protein expression promoter is CAG. • b) The target protein was expressed in HEK 293T cell line. Cells were subcultured one day before transfection, and transfection was performed when the degree of cell adhesion reached 70%-80%. The transfection reagent was lipofectamine2000 (ThermoFisher). • c) 4-6 hours post transfection, the medium were replaced with fresh cell culture medium. • d) 36-48 hours post transfection, the cells were lysed (10% 1M tris-HCl (pH=6.8), 4% SDS, 20% glycerol, 0.01% bromophenol blue), and the protein samples were collected and used for Western blot or stored in a −80° C. freezer. • e) Polyacrylamide gel electrophoresis. Before protein loading, the protein was boiled at 98° C. for 10 min, and then centrifuged at 12000 rpm for 10 min. Electrophoresis: 80V for the upper stacking gel; 120V for the lower separating gel. • f) Protein transfer. The filter paper was soaked in the electrophoresis solution before use, and the PVDF membrane was put in methanol for 10s to activate, and the gel after electrophoresis was taken out from the electrophoresis tank, put in the order of filter paper—PVD membrane—gel-filter paper from bottom to top, and they were put into the transfer instrument, with transferring in constant current at 0.1 A for 70 min. • g) Blocking and antibody incubation: the transferred PVDF membrane was placed in 5% BSA/TBST blocking solution, and blocked on a shaker at room temperature for 1 hour. The primary antibody was used to incubate at 4° C. overnight on a shaker (12-16 h); 1×TBST was used to wash three times, once every 10 minutes; the secondary antibody was used to incubate, shaked at room temperature for 1-2 h; 1×TBST was used to wash three times, once every 10 minutes. • h) Imaging by development: development was performed with ECL chemiluminescence hypersensitive chromogenic reagent.
as §1
Data were analyzed by GraphPad Prism software (v6) using unpaired, paired, or one-sample t-tests. Aβ40 and Aβ42 levels were normalized to the corresponding GFP controls. α-CTF levels were normalized to FL-APP and corresponding GFP controls. All data are represented as mean±SEM. Statistical significance was defined as p<0.05. One, two, three and four stars (*) in the graph indicate p-values <0.05, <0.01, <0.001 and <0.0001, respectively.

B1: ApoE CT: C-terminal fragment of ApoE, positions 216-299 of SEQ ID NO: 12; SEQ ID NO: 33 (protein)
chain: ARMEEMGSRTRDRLDEVKEQVAEVRAKLEEQAQQIRLQAEAFQARLKSWFEPLVEDMQRQWAGLVEKVQAAVGTSAAPVPSDNH
[1]
  γ-secretase-dependent reduction of N100: failed to suppress
[2]; hiPSC-induced neurons, lentiviral infection
  reduction in Aβ40 production: approximately 46%
[2]; human neurons from pluripotent stem cell line, lentivirus
  endogenous Aβ40: also reduces endogenous Aβ40
[2]; human pluripotent stem cell-induced neurons
  endogenous production of Aβ40: about 54 % of controls
[3]
  α-like CTF of APLP1: does not increase the α-like CTF of APLP1; also recorded: did not increase the α-like CTF
[4]
  level of α-CTF compared with ApoE2: significantly increases the level of α-CTF
[4]; 1 μM ADAM10 inhibitor GI254023X
  increase of α-CTF in the presence of GI254023X: approximately 4 fold
[4]; 1 μM γ-secretase inhibitor PF03084014
  α-CTF in the presence of PF03084014: failed to further increase α-CTF
[4]; 5 μM AZD3839
  α-CTF when β-secretase inhibited by AZD3839: still increases α-CTF
[4]; APP and PS1 co-expressed, PF03084014 at 1 μM
  α-CTF produced by APP co-expressed with PS1: significantly increases α-CTF; also recorded: can increase the production of α-CTF
[4]; APP, γ-secretase and ApoE CT co-expressed
  γ-cleavage of APP (α-CTF) when co-expressed with γ-secretase: still inhibited γ-cleavage of APP
[4]; vs GFP control
  α-CTF produced by co-expressed APP: significantly increased α-CTF; also recorded: increased the α-CTF
  increase in α-CTF levels: more than 6 fold
  α-CTF level: more than 5 times the original level
[4]; vs GFP control, listed as human ApoE CT
  α-CTF produced by co-expressed APP: also increase α-CTF
